In the RNAGym collection of RNA variant scans (doi:10.1093/molbev/msab373):

B1: Azoarcus group I ribozyme (parent)
chain: GUGCCUUGCGCCGGGAAACCACGCAAGGGAUGGUGUCAAAUUCGGCGAAACCUAAGCGCCCGCCCGGGCGUAUGGCAACGCCGAGCCAAGCUUCGGCGCCUGCGCCGAUGAAGGUGUAGAGACUAGACGGCACCCACCUAAGGCAAACGCUAUGGUGAAGGCAUAGUCCAGGGAGUGGCGAAAGUCACACAAACCGG

Variants of: B1
Test: reverse-splicing fitness (ratio to wild type); higher = more active; in vitro selection; Mg2+ level not given
Method in brief: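 An in vitro group I ribozyme library with randomized positions was T7-transcribed and gel-purified. In triplicate, 10 pmol RNA in EPPS pH 7.5 was reacted with 50 pmoles of a 30-nt RNA substrate for 1 h at 37 °C across several added MgCl2 levels (1–48 mM), then stopped with EDTA. Products were reverse transcribed from a substrate-complementary primer, PCR-amplified and sequenced (HiSeq 4000). Fitness is a variant's read proportion after selection over that before, normalised to wild type.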

Variant | reverse-splicing fitness
GUGCCUUGCGCCGGGAAACCACGCAAGGGAUGGUGUCAAAUUCGGCGAAACCUAAGCGCCCGCCCGGGCGUAUGGCAACGCCGAGCCAAGCUUCGGCGCCUGCGCCGAUGAAGGUGUAGCGACUAGACGGCACCCACCUAAGGCCAACGAUAUGGUGAAGGCAUAGUCCAGGGAGGGGCGAAAGUCACACAAACCGG | 0.0481
GUGCCUUGCGCCGGGAAACCACGCAAGGGAUGGUGUCAAAUUCGGCGAAACCUAAGCGCCCGCCCGGGCGUAUGGCAACGCCGAGCCAAGCUUCGGCGCCUGCGCCGAUGAAGGUGUAGCGACUAGACGGCACCCACCUAAGGCCAACGAUAUGGUGAAGGCAUAGUCCAGGGAGCGGCGAAAGUCACACAAACCGG | 0.102
GUGCCUUGCGCCGGGAAACCACGCAAGGGAUGGUGUCAAAUUCGGCGAAACCUAAGCGCCCGCCCGGGCGUAUGGCAACGCCGAGCCAAGCUUCGGCGCCUGCGCCGAUGAAGGUGUAGCGACUAGACGGCACCCACCUAAGGCCAACGAUAUGGUGAAGGCAUAGUCUAGGGAGGGGCGAAAGUCACACAAACCGG | 0.00561
GUGCCUUGCGCCGGGAAACCACGCAAGGGAUGGUGUCAAAUUCGGCGAAACCUAAGCGCCCGCCCGGGCGUAUGGCAACGCCGAGCCAAGCUUCGGCGCCUGCGCCGAUGAAGGUGUAGCGACUAGACGGCACCCACCUAAGGCCAACGGUAUGGUGAAGGCAUAGUCAAGGGAGAGGCGAAAGUCACACAAACCGG | 0.00776
GUGCCUUGCGCCGGGAAACCACGCAAGGGAUGGUGUCAAAUUCGGCGAAACCUAAGCGCCCGCCCGGGCGUAUGGCAACGCCGAGCCAAGCUUCGGCGCCUGCGCCGAUGAAGGUGUAGCGACUAGACGGCACCCACCUAAGGCCAACGGUAUGGUGAAGGCAUAGUCAAGGGAGCGGCGAAAGUCACACAAACCGG | 0.00596
GUGCCUUGCGCCGGGAAACCACGCAAGGGAUGGUGUCAAAUUCGGCGAAACCUAAGCGCCCGCCCGGGCGUAUGGCAACGCCGAGCCAAGCUUCGGCGCCUGCGCCGAUGAAGGUGUAGCGACUAGACGGCACCCACCUAAGGCCAACGGUAUGGUGAAGGCAUAGUCAAGGGAGGGGCGAAAGUCACACAAACCGG | 0.00424
GUGCCUUGCGCCGGGAAACCACGCAAGGGAUGGUGUCAAAUUCGGCGAAACCUAAGCGCCCGCCCGGGCGUAUGGCAACGCCGAGCCAAGCUUCGGCGCCUGCGCCGAUGAAGGUGUAGCGACUAGACGGCACCCACCUAAGGCCAACGUUAUGGUGAAGGCAUAGUCAAGGGAGUGGCGAAAGUCACACAAACCGG | 0.0127
GUGCCUUGCGCCGGGAAACCACGCAAGGGAUGGUGUCAAAUUCGGCGAAACCUAAGCGCCCGCCCGGGCGUAUGGCAACGCCGAGCCAAGCUUCGGCGCCUGCGCCGAUGAAGGUGUAGCGACUAGACGGCACCCACCUAAGGCCAACGUUAUGGUGAAGGCAUAGUCGAGGGAGUGGCGAAAGUCACACAAACCGG | 0.0109
GUGCCUUGCGCCGGGAAACCACGCAAGGGAUGGUGUCAAAUUCGGCGAAACCUAAGCGCCCGCCCGGGCGUAUGGCAACGCCGAGCCAAGCUUCGGCGCCUGCGCCGAUGAAGGUGUAGCGACUAGACGGCACCCACCUAAGGCCAACGUUAUGGUGAAGGCAUAGUCUAGGGAGUGGCGAAAGUCACACAAACCGG | 0.194
GUGCCUUGCGCCGGGAAACCACGCAAGGGAUGGUGUCAAAUUCGGCGAAACCUAAGCGCCCGCCCGGGCGUAUGGCAACGCCGAGCCAAGCUUCGGCGCCUGCGCCGAUGAAGGUGUAGCGACUAGACGGCACCCACCUAAGGCCAACGGUAUGGUGAAGGCAUAGUCCAGGGAGAGGCGAAAGUCACACAAACCGG | 0.155
GUGCCUUGCGCCGGGAAACCACGCAAGGGAUGGUGUCAAAUUCGGCGAAACCUAAGCGCCCGCCCGGGCGUAUGGCAACGCCGAGCCAAGCUUCGGCGCCUGCGCCGAUGAAGGUGUAGCGACUAGACGGCACCCACCUAAGGCCAACGGUAUGGUGAAGGCAUAGUCCAGGGAGCGGCGAAAGUCACACAAACCGG | 0.174
GUGCCUUGCGCCGGGAAACCACGCAAGGGAUGGUGUCAAAUUCGGCGAAACCUAAGCGCCCGCCCGGGCGUAUGGCAACGCCGAGCCAAGCUUCGGCGCCUGCGCCGAUGAAGGUGUAGCGACUAGACGGCACCCACCUAAGGCCAACGGUAUGGUGAAGGCAUAGUCCAGGGAGGGGCGAAAGUCACACAAACCGG | 0.0256
GUGCCUUGCGCCGGGAAACCACGCAAGGGAUGGUGUCAAAUUCGGCGAAACCUAAGCGCCCGCCCGGGCGUAUGGCAACGCCGAGCCAAGCUUCGGCGCCUGCGCCGAUGAAGGUGUAGCGACUAGACGGCACCCACCUAAGGCCAACGGUAUGGUGAAGGCAUAGUCUAGGGAGAGGCGAAAGUCACACAAACCGG | 0.0183
GUGCCUUGCGCCGGGAAACCACGCAAGGGAUGGUGUCAAAUUCGGCGAAACCUAAGCGCCCGCCCGGGCGUAUGGCAACGCCGAGCCAAGCUUCGGCGCCUGCGCCGAUGAAGGUGUAGCGACUAGACGGCACCCACCUAAGGCCAACGGUAUGGUGAAGGCAUAGUCUAGGGAGGGGCGAAAGUCACACAAACCGG | 0.0043
GUGCCUUGCGCCGGGAAACCACGCAAGGGAUGGUGUCAAAUUCGGCGAAACCUAAGCGCCCGCCCGGGCGUAUGGCAACGCCGAGCCAAGCUUCGGCGCCUGCGCCGAUGAAGGUGUAGCGACUAGACGGCACCCACCUAAGGCCAACGGUAUGGUGAAGGCAUAGUCUAGGGAGCGGCGAAAGUCACACAAACCGG | 0.0503
